According to paper PMC8357826, “The extracellular chaperone Clusterin enhances Tau aggregate seeding in a cellular model” (Nature Communications, 2021):

Target: cysteine-free TauRD (Tau repeat domain, residues 244-371, C291A/P301L/C322A/V337M) (UniProt P10636-8 244-371, C291A | P301L | C322A | V337M)
Test: cell-based or functional assay

Sequence of cysteine-free TauRD (Tau repeat domain, residues 244-371, C291A/P301L/C322A/V337M) (P10636 561-688 C608A/P618L/C639A/V654M): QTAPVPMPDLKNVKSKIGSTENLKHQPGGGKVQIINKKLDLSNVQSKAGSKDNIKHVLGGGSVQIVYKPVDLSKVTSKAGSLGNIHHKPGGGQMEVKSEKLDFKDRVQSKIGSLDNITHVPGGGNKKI

seeding capacity in TauRD-YT cells of the soluble fraction of a TauRD aggregation reaction made without Clu, after adding Clu: ~5 fold
specific seeding activity (FRET-positive TauRD-YT cells per ng TauRD) of the Clu-containing supernatant against the supernatant without Clu: ~40 fold
B1: Clusterin (Clu; apolipoprotein J), recombinant with Strep tag (CluStrep) (natural protein, human)
chain 1: DQTVSDNELQEMSNQGSKYVNKEIQNAVNGVKQIKTLIEKTNEERKTLLSNLEEAKKKKEDALNETRESETKLKELPGVCNETMMALWEECKPCLKQTCMKFYARVCRSGSGLVGRQLEEFLNQSSPFYFWMNGDRIDSLLENDRQQTHMLDVMQDHFSRASSIIDELFQDRFFTREPQDTYHYLPFSLPHRRPHFFFPKSRIVR
chain 2: SLMPFSPYEPLNFHAMFQPFLEMIHEAQQAMDIHFHSPAFQHPPTEFIREGDDDRTVCREIRHNSTGCLRMKDQCDKCREILSVDCSTNNPSQAKLRRELDESLQVAERLTRKYNELLKSYQWKMLNTSSLLEQLNEQFNWVSRLANLTQGEDQYYLRVTTVASHTSDSDVPSGVTEVVVKLFDSDPITVTVPVEVSRKNPKFMETVAEKALQEYRKKHREE
modifications: N-glycosylated | N-glycosylated
